From CN111875704A (BAI XIANHONG, dated 2020)

Legend:
[1] = target: T1, 带有His6标签的EGFR胞外区蛋白 (EGFR extracellular domain with His6 tag) (UniProt P00533 25-645, limits assumed); assay: SPR, BIACORE X100 PLUS; ratio of KD against the reference mR3
T1 construct: extracellular domain; also called EGFR保外区蛋白; 抗原; not shown: His6 tag

[2] = target: T1, 带有His6标签的EGFR胞外区蛋白 (EGFR extracellular …); assay: monoclonal scFv-phage ELISA on coated antigen at 1 μg/ml, Anti-M13 HRP, OD450

B1: 24H7 全长抗体 (full-length anti-EGFR antibody, IgG1/kappa) (antibody, V domains shown)
VH: QVQLQQPGAELVKPGASVKLSCKASGYTFTNYYIYWFKQRPGQGLEWIGGINPTSGGSNFNEKFKTKATLTVDESSTTAYMQLSSLTSEDSAVYYCTRQGLWFDSDGRGFDFWGQGTTLTVSS
VL: DVLMTQIPLSLPVSLGDQASISCRSSQNIVHSNGNTYLDWYLQKPGQSPNLLIYKVSNRFSGVPDRFRGSGSGTDFTLKISRVEAEDLGVYYCFQYSHVPWTFGGGTKLEIKR
notes: also called 全长24H7抗体
- fold improvement of affinity against mR3 [1]: 10 倍

B2: 24H7 scFv (单克隆scFv噬菌体抗体) (scFv)
scFv: QVQLQQPGAELVKPGASVKLSCKASGYTFTNYYIYWFKQRPGQGLEWIGGINPTSGGSNFNEKFKTKATLTVDESSTTAYMQLSSLTSEDSAVYYCTRQGLWFDSDGRGFDFWGQGTTLTVSSGGGGSGGGGSGGGGSDVLMTQIPLSLPVSLGDQASISCRSSQNIVHSNGNTYLDWYLQKPGQSPNLLIYKVSNRFSGVPDRFRGSGSGTDFTLKISRVEAEDLGVYYCFQYSHVPWTFGGGTKLEIKRGQAGQHHHHHH
notes: The phage coat protein fusion is not described
- binding result [2]: binds
